According to patent EP4563596A1 (OncoSpear ApS, dated 2025):

Tests used:
Assay in all cases: cell-based or functional assay
[1] = biological target: T1, CD16 V158 (FcγRIIIA) on Jurkat reporter cells (human, UniProt P08637 17-254)
[2] = biological target: T2, CD16 F158 (FcγRIIIA) on Jurkat reporter cells (human, UniProt P08637 17-254)
[3] = biological target: T1, CD16 V158 (FcγRIIIA) on Jurkat reporter …; remark: listed apart in the source
[4] = biological target: T2, CD16 F158 (FcγRIIIA) on Jurkat reporter …; remark: listed apart in the source
[5] = biological target: full length human CD163 on cells (human, UniProt Q86VB7 42-1156)
full length human CD163 on cells, sequence (Q86VB7 42-1156 limits assumed): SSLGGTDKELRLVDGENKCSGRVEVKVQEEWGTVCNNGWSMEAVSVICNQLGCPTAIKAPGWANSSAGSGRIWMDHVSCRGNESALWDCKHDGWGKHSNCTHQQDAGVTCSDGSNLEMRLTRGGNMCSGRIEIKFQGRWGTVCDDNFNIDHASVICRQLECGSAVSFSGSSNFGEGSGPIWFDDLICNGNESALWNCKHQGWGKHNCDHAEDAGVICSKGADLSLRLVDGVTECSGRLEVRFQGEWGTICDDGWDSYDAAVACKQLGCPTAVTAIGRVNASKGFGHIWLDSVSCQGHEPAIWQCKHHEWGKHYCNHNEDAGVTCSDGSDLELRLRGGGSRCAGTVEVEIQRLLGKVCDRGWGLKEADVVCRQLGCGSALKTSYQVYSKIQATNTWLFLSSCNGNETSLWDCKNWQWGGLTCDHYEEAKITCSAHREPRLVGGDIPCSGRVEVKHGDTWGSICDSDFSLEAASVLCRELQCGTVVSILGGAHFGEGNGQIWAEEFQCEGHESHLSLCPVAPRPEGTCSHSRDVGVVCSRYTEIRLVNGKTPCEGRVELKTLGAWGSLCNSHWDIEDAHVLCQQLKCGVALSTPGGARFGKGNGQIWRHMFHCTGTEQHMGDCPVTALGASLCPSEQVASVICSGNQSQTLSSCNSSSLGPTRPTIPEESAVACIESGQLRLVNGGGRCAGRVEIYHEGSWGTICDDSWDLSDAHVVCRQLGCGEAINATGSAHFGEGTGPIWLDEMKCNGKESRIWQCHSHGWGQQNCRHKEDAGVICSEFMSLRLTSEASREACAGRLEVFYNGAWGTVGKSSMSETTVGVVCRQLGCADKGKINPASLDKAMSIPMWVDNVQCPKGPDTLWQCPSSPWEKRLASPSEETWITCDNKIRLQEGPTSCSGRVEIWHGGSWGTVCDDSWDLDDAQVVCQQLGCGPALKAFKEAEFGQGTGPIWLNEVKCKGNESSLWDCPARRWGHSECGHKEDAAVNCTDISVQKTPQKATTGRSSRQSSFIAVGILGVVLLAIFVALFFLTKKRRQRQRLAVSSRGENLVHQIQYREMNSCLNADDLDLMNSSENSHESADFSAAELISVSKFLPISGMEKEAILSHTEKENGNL

T1 sequence (P08637 17-254 F176V): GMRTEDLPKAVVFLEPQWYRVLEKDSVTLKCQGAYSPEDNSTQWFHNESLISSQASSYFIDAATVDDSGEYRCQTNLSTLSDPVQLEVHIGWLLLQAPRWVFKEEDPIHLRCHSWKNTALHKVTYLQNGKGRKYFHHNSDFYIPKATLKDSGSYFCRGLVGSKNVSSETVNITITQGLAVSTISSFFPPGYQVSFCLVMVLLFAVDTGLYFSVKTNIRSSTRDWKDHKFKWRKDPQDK
T2 sequence (P08637 17-254): as the sequence (P08637 17-254 F176V) above, with V160F counted along it

Binder	Relative EC50 ADCC V158 (high); target cells FlpIn293-hCD163 [1]	Relative EC50 ADCC F158 (low); target cells FlpIn293-hCD163 [2]	Relative EC50 ADCC (CD16 V158); target cells M2c macrophages [3]	Relative EC50 ADCC (CD16 F158); target cells M2c macrophages [4]	EC50 of PBMC mediated cytotoxicity in CD163 expressing macrophages [5]
OS005 (antibody, human IgG1, kappa) heavy: QVQLQESGPGLVKPSETLSLTCTVSGYSITSDYAWNWIRQFPGNKLEWMGYITYSGSTYYNPSLKSRVTISVDTSKNQFSLKLSSVTAADTATYYCVSGTYYFDYWGQGTTLTVSSASTKGPSVFPLAPSSKSTSGGTAALGCLVKDYFPEPVTVSWNSGALTSGVHTFPAVLQSSGLYSLSSVVTVPSSSLGTQTYICNVNHKPSNTKVDKKVEPKSCDKTHTCPPCPAPELVGGPSVFLLPPKPKDTLMISRTPEVTCVVVDVSHEDPEVKFNWYVDGVEVHNAKTKPPEEQYNSTLRVVSVLTVLHQDWLNGKEYKCKVSNKALPAPIEKTISKAKGQPREPQVYTLPPSRDELTKNQVSLTCLVKGFYPSDIAVEWESNGQPENNYKTTPLVLDSDGSFFLYSKLTVDKSRWQQGNVFSCSVMHEALHNHYTQKSLSLSPGK light: DIVMTQSPSSLSASVGDRVTITCRASQSVSSDVAWFQQKPGKSPKPLIYYASNRYSGVPSRFSGSGSGTDFTLTISSLQAEDFAVYFCGQDYTSPRTFGGGTKLEIKRTVAAPSVFIFPPSDEQLKSGTASVVCLLNNFYPREAKVQWKVDNALQSGNSQESVTEQDSKDSTYSLSSTLTLSKADYEKHKVYACEVTHQGLSSPVTKSFNRGEC	2.2 relative (EC50 OS001/EC50 construct)	5.4 relative (EC50 OS001/EC50 construct)	23 relative (normalized to OS001)	13 relative (normalized to OS001)	–
OS001 (antibody, human IgG1, kappa) heavy: not shown light: DIVMTQSPSSLSASVGDRVTITCRASQSVSSDVAWFQQKPGKSPKPLIYYASNRYSGVPSRFSGSGSGTDFTLTISSLQAEDFAVYFCGQDYTSPRTFGGGTKLEIKRTVAAPSVFIFPPSDEQLKSGTASVVCLLNNFYPREAKVQWKVDNALQSGNSQESVTEQDSKDSTYSLSSTLTLSKADYEKHKVYACEVTHQGLSSPVTKSFNRGEC	1 relative (EC50 OS001/EC50 construct)	1 relative (EC50 OS001/EC50 construct)	1 relative (normalized to OS001)	1 relative (normalized to OS001)	–

Second part, led by results:

Relative EC50 ADCC V158 (high); target cells FlpIn293-hCD163 [1]	Relative EC50 ADCC F158 (low); target cells FlpIn293-hCD163 [2]	Relative EC50 ADCC (CD16 V158); target cells M2c macrophages [3]	Relative EC50 ADCC (CD16 F158); target cells M2c macrophages [4]	Binder	EC50 of PBMC mediated cytotoxicity in CD163 expressing macrophages [5]
7.6 relative (EC50 OS001/EC50 construct)	7 relative (EC50 OS001/EC50 construct)	23 relative (normalized to OS001)	12 relative (normalized to OS001)	OS009 (antibody, human IgG1, kappa) heavy: not shown light: DIVMTQSPSSLSASVGDRVTITCRASQSVSSDVAWFQQKPGKSPKPLIYYASNRYSGVPSRFSGSGSGTDFTLTISSLQAEDFAVYFCGQDYTSPRTFGGGTKLEIKRTVAAPSVFIFPPSDEQLKSGTASVVCLLNNFYPREAKVQWKVDNALQSGNSQESVTEQDSKDSTYSLSSTLTLSKADYEKHKVYACEVTHQGLSSPVTKSFNRGEC	2.8 ng/mL
5.9 relative (EC50 OS001/EC50 construct)	2.5 relative (EC50 OS001/EC50 construct)	26 relative (normalized to OS001)	71 relative (normalized to OS001)	OS006 (antibody, human IgG1, kappa) heavy: QVQLQESGPGLVKPSETLSLTCTVSGYSITSDYAWNWIRQFPGNKLEWMGYITYSGSTYYNPSLKSRVTISVDTSKNQFSLKLSSVTAADTATYYCVSGTYYFDYWGQGTTLTVSSASTKGPSVFPLAPSSKSTSGGTAALGCLVKDYFPEPVTVSWNSGALTSGVHTFPAVLQSSGLYSLSSVVTVPSSSLGTQTYICNVNHKPSNTKVDKKVEPKSCDKTHTCPPCPAPELLGGPDVFLFPPKPKDTLMISRTPEVTCVVVDVSHEDPEVKFNWYVDGVEVHNAKTKPREEQYNSTYRVVSVLTVLHQDWLNGKEYKCKVSNKALPLPEEKTISKAKGQPREPQVYTLPPSRDELTKNQVSLTCLVKGFYPSDIAVEWESNGQPENNYKTTPPVLDSDGSFFLYSKLTVDKSRWQQGNVFSCSVMHEALHNHYTQKSLSLSPGK light: DIVMTQSPSSLSASVGDRVTITCRASQSVSSDVAWFQQKPGKSPKPLIYYASNRYSGVPSRFSGSGSGTDFTLTISSLQAEDFAVYFCGQDYTSPRTFGGGTKLEIKRTVAAPSVFIFPPSDEQLKSGTASVVCLLNNFYPREAKVQWKVDNALQSGNSQESVTEQDSKDSTYSLSSTLTLSKADYEKHKVYACEVTHQGLSSPVTKSFNRGEC	–
11.2 relative (EC50 OS001/EC50 construct)	17.6 relative (EC50 OS001/EC50 construct)	39 relative (normalized to OS001)	111 relative (normalized to OS001)	OS017 (antibody, human IgG1, kappa, afucosylated glycan (GlymaxX expression)) heavy: not shown light: DIVMTQSPSSLSASVGDRVTITCRASQSVSSDVAWFQQKPGKSPKPLIYYASNRYSGVPSRFSGSGSGTDFTLTISSLQAEDFAVYFCGQDYTSPRTFGGGTKLEIKRTVAAPSVFIFPPSDEQLKSGTASVVCLLNNFYPREAKVQWKVDNALQSGNSQESVTEQDSKDSTYSLSSTLTLSKADYEKHKVYACEVTHQGLSSPVTKSFNRGEC	2.6 ng/mL
